Test results from the supplement of paper PMC10567573.

B1: MNAT1 (parent)
chain: LAPIHKLEEALYEYQPLQIETYGP
B2: TBX5 (parent)
chain: YQNHKITQLKIENNPFAKGFRGSD

Variants of: B1
Assay: protein stability index of a GFP-peptide fusion (GPS, HEK-293T) (PSI 1-6); higher = more stable
Details: c terminus: a fixed tail appended
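Also: lentivirally expressed fusions sorted by FACS into six bins by GFP to DsRed ratio, PSI derived from sequencing read proportions per bin multiplied by bin number.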

Protein stability index: each site, then its substitutions
Y22: L 2.63 | E 3.19 | A 2.18 | M 2.01 | P 2.88 | Q 2.66 | S 2.4
L7: N 2.72 | D 4.04 | W 3.02 | F 2.37 | K 3.54 | V 2.76 | R 3.06
E20: T 1.28 | M 1.47 | W 2.88 | H 1.6 | I 2.71 | A 1.32
L17: T 2.47 | E 3.63 | R 3.57 | I 2.1 | H 3.03 | D 3.96 | S 3.45 | P 2.89 | V 3.02 | G 3.12
T21: N 2.5 | M 3.53 | S 2.23 | L 3.23 | H 1.62 | G 1.98 | C 3.14 | K 2.5 | Y 2.38 | D 2.31 | A 2.6
E8: M 3.31 | C 3.13 | Y 2.08 | V 1.53 | I 3.59 | T 2 | P 2.19 | A 1.55 | S 1.75 | Q 2.05 | R 2.26 | F 3.18 | H 1.67
I19: M 2.37 | P 2.79 | L 2.89 | H 2.85 | N 3.25 | K 2.99 | Q 3.62 | G 2.85 | W 2.32
L11: R 2.77 | V 2.9 | D 3.71 | G 3.48 | Q 3.23 | F 2.07 | A 3.55 | W 2.14 | M 2.34 | C 2.69 | I 2.3
L1: I 1.94 | W 2.56 | K 2.33 | S 2.62 | Q 2.47 | M 1.87 | Y 2.12 | D 2.31 | G 1.98 | C 1.25 | H 1.67
A10: P 2.73 | T 1.79 | V 2.71 | Q 2.42 | C 2.09 | D 2.91
P16: Y 1.52 | K 1.92 | G 2.35 | Q 1.97 | I 2.79 | R 2.02 | D 2.86 | V 2.23 | S 2.57 | F 1.44 | M 1.85 | T 1.96
Y14: E 3.43 | R 3.59 | K 3.53 | S 3.36 | W 2.28 | C 2.54 | A 3.19 | P 2.94 | N 2.99
P3: N 1.32 | V 2.7 | T 2.32 | K 2.04 | A 2.23 | D 1.46 | R 2.1 | Q 1.67
P24: K 2.29 | L 3.08 | S 2.35 | H 1.58 | I 2.04 | Q 1.75 | N 2.52 | M 1.25 | Y 2.37 | T 1.87
Q18: M 1.85 | L 1.28 | G 1.51 | C 2.21 | Y 1.37 | I 1.94 | H 1.91 | P 2.76 | A 1.84 | S 1.86
Q15: L 1.73 | V 1.44 | G 1.52 | I 1.66 | T 2.2 | N 1.83 | R 2.03 | H 2.08 | C 1.05 | A 2.17
Y12: R 2.19 | S 1.87 | D 3.07 | G 2.64 | L 2.21 | Q 1.88 | F 1.19 | V 2.13
I4: E 2.78 | W 1.59 | A 2.95 | R 2.75 | F 1.88 | T 2.15 | N 2.35
H5: D 2.33 | F 2.03 | A 2.17 | I 1.71 | T 1.59 | M 1.71 | S 2.11 | R 2.56 | Y 1.61
G23: E 1.86 | Q 2.02 | W 1.14 | R 1.15 | V 2.79 | K 2.86 | T 1.3 | D 1.3 | L 2.56 | H 2.67 | C 1.44 | A 2.16
E9: F 2.25 | V 3.14 | T 2.16 | W 2.08 | K 2.26 | D 2.25 | N 1.78 | R 1.91 | C 2.68
K6: A 1.97 | P 2.13 | S 2.24 | L 2.29 | D 1.94 | V 2.14 | R 1.8 | T 1.84 | E 2.27 | F 2.75 | H 1.97
E13: L 2.22 | I 2.17 | Y 1.61 | S 1.58 | Q 1.43 | W 2.08 | K 1.83 | C 1.64 | G 2.37 | T 2.14 | M 2.49 | P 1.68
A2: R 1.62 | T 2.63 | L 2.93 | C 1.68 | K 1.92 | V 2.54 | F 3.4 | W 2.44 | M 1.63

Variants of: B2
Assay: as above
Details: c terminus: a fixed tail appended

Protein stability index of substitutions, site by site:
F20: M 2.69 | L 2.79 | Q 3.19 | D 3.41 | A 3.41 | C 2.85 | I 2.47 | E 3.56 | V 2.63 | W 2.73 | P 2.88 | G 2.98 | S 3.23 | T 3.04 | N 3.28 | Y 2.49 | H 3.27 | K 3.11 | R 3.02
D24: L 1.95 | S 2.14 | M 2.43 | Q 1.88 | E 2.64 | T 2.11 | K 2.53 | H 1.99 | A 2.43 | G 2.39 | V 1.83 | R 2.69 | P 2.39 | W 1.32 | F 1.95 | I 2.08 | N 2.57 | C 2.25 | Y 2.04
R21: Y 2.96 | F 2.89 | L 2.15 | H 2.52 | K 2.64 | A 2.32 | N 2.61 | C 2.34 | Q 2.57 | M 2.55 | V 2.51 | E 2.58 | S 2.76 | G 2.46 | I 2.19 | T 2.44 | D 2.95 | P 2.74 | W 1.8
G22: C 2.24 | L 2.02 | F 1.74 | K 2.49 | H 2.46 | P 3.32 | D 2.56 | M 2.49 | A 2.37 | I 2.48 | Q 2.83 | W 1.76 | E 2.33 | R 2.12 | S 2.57 | T 2.67 | N 2.4 | Y 2.63 | V 2.32
G19: Y 2.36 | T 2.53 | P 2.85 | L 2.05 | K 2.59 | R 2.22 | M 2.29 | Q 3.1 | V 2.31 | W 1.88 | N 2.19 | S 2.76
S23: G 2.59 | Y 2.55 | H 2.47 | N 2.39 | K 2.64 | L 2.11 | E 2.42 | W 2.02 | I 2.12 | A 2.25 | C 2.49 | R 2.63 | P 2.55 | V 2.35 | M 2.18 | D 2.83 | T 2.3 | F 1.92 | Q 2.71
